According to article PMC3025356, “Mechanism of the Ca^2+-Dependent Interaction between S100A4 and Tail Fragments of Nonmuscle Myosin Heavy Chain IIA” (Journal of Molecular Biology, 2011):
Where “and” joins values, the source holds several entries; their conditions need not be identical. Identical values can stand only once.

Tests used:
[1] = Turbidity of M200 filaments; type: physicochemical
Experimental: Absorption spectra were recorded using a Cary 50 spectrophotometer (Varian Ltd., Walton on Thames, UK). Protein concentrations were calculated from their absorbance at 280 nm, using molar coefficients of 2980 M^− 1 cm^− 1 (M200 and S100A4) and 1490 M^− 1 cm^− 1 (M111), based on their tyrosine content (two residues per chain and one residue per chain, respectively). Myosin fragments were measured in 0.5 M NaCl buffer, and care was taken to correct for the small contribution from turbidity. Protein concentrations are stated in terms of their monomeric polypeptide chain concentration. Under the conditions used for kinetic analysis, S100A4 is predominantly a dimer,[21,25] and M200 and M111 form stable coiled coils; therefore, the molar protein concentrations are half those given in all three cases. Fluorescence emission spectra were also checked, and those preparations containing a detectable shoulder at 340 nm due to contaminating tryptophan-containing proteins were subjected to further purification. F-M16^N concentrations were based on fluorescein absorbance (ɛ490 = 78,000 M^− 1 cm^− 1). […] Quin-2 concentrations were calculated from ɛ354 = 5000 M^− 1 cm^− 1 in the absence of Ca^2+.[39] Turbidity assays used to monitor M200 filament formation and solubilisation with manual mixing were carried out using a 10-mm pathlength and a 0.1-ml microcuvette (105.250-QS; Hellma, Southend on Sea, UK) at a wavelength of 300 nm. For determination of the free Ca^2+ concentration, Fura-2 fluorescence excitation spectra were measured in the same cuvette using the 2-mm path for excitation to minimise inner filter effects. […]
y = m2*(1-((m0^m4)/(m0^ m4+m...
Fig. S5. (a) Turbidity of the M200 fragment (5
M) as a function of [NaCl]. (b) Determination of the critical concentration of M200 in 100 mM NaCl, 10 mM Hepes, 0.1 mM Ca2+ at pH 7.5 and 20 °C. Aliquots of 1 or […]
l of M200 were added to 1 ml buffer and the turbidity reading determined over a 30 s period. A linear fit to the data obtained above 0.3
M indicated a critical concentration of 0.1 […]

[2] = target: T1, S100A4 (Homo sapiens, UniProt P26447); experiment: Ca^2+ dependence of M200 turbidity in the presence of S100A4; type: biochemical; details: 5 μM M200 + S100A4; 100 mM NaCl, 20 mM Hepes, 1 mM Mg^2+, 1 mM EGTA, 1 μM Fura-2; read-out: apparent Kd for Ca^2+ binding
T1 construct: We used full-length S100A4 for this analysis; made in house; host or cells: Escherichia coli BL21(DE3)
T1 sequence (P26447 whole entry): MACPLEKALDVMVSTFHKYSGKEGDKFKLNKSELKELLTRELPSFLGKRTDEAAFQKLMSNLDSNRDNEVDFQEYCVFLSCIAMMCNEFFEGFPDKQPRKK
Description: The decrease in fluorescence, […]
that F-M16N binding was slightly faster.
The equilibrium constant (K5) for dissociation of the M200.S100A4.Ca2+ complex The value of K5 (scheme 2) was estimated from two independent experiments. From the competition […]
inhibition in the amplitude of the turbidity change arising from 5 M M200 at saturating Ca2+ concentrations. Under these conditions the free S100A4.Ca2+ concentration is ~ 0.06 M based on K2 = 3 […]
concentration will remain close to its critical concentration (K4 = 0.1 M), so that K5 = 0.1 * 0.06 / 5 ≈ 0.001 M, which represents the binding of S100A4.Ca2+ to free M200.
A second estimate was calculated from the apparent Ca2+ binding constant observed in the turbidity assay
(Fig. S6c). 5 M M200 in the presence of S100A4 and 1 mM EGTA gave a high turbidity in 0.1 M NaCl buffer, as S100A4 binds weakly under these conditions. Addition of aliquots of Ca2+ caused filament dissociation as the free Ca2+ rose, to give an apparent binding constant for Ca2+ of 0.14 M (Fig. S6c). At […]
contained 100 mM NaCl, 20 mM Hepes, 1 mM Mg2+, 1 mM EGTA and 1 µM Fura-2. Ca2+ was added in l aliquots and the turbidity measured (using the 10 mm path length). The free Ca2+ was calculated from the ratio of the Fura-2 340 nm to 362 nm excitation peaks, assuming a Kd of 0.224 M 1, measured between each addition of Ca2+ (using the 2 mm path length for excitation).

B1: M200: His-tagged human NM-MHC IIA residues Q1761-E1960, V1913I substitution (protein, UniProt P35579 1761-1960, looked up, variant V1913I)
chain: QINTDLNLERSHAQKNENARQQLERQNKELKVKLQEMEGTVKSKYKASITALEAKIAQLEEQLDNETKERQAACKQVRRTEKKLKDVLLQVDDERRNAEQYKDQADKASTRLKQLKRQLEEAEEEAQRANASRRKLQRELEDATETADAMNREISSLKNKLRRGDLPFVVPRRMARKGAGDGSDEEVDGKADGAEAKPAE
modifications: His tag
notes: His-tagged human NM-MHC IIA residues Q1761-E1960, V1913I substitution
NaCl midpoint of turbidity transition ([1]; 5 μM M200): about 120 mM NaCl
intercept (critical concentration) from 2.5-5 μM data only ([1]; 100 mM NaCl): 0.49 µM
critical concentration ([1]; 100 mM NaCl, 10 mM Hepes, 0.1 mM Ca^2+, pH 7.5, 20 °C): ~0.1 ± 0.04 µM and < 0.2 µM
critical concentration (supplement) ([1]; 100 mM NaCl, 10 mM Hepes, 0.1 mM Ca^2+, pH 7.5, 20 °C, fit above 0.3 μM): 0.1 µM
Kd [2]: 140 nM
